This note sets out measurements from paper PMC5945547, “SAAV2152 is a single-stranded DNA binding protein: the third SSB in Staphylococcus aureus” (Oncotarget, 2018).

Assay [1] concerns the target T1, SaPriA (Staphylococcus aureus, UniProt Q2G266).
T1 construct: gene priA; recombinant
T1 sequence (Q2G266 1-802): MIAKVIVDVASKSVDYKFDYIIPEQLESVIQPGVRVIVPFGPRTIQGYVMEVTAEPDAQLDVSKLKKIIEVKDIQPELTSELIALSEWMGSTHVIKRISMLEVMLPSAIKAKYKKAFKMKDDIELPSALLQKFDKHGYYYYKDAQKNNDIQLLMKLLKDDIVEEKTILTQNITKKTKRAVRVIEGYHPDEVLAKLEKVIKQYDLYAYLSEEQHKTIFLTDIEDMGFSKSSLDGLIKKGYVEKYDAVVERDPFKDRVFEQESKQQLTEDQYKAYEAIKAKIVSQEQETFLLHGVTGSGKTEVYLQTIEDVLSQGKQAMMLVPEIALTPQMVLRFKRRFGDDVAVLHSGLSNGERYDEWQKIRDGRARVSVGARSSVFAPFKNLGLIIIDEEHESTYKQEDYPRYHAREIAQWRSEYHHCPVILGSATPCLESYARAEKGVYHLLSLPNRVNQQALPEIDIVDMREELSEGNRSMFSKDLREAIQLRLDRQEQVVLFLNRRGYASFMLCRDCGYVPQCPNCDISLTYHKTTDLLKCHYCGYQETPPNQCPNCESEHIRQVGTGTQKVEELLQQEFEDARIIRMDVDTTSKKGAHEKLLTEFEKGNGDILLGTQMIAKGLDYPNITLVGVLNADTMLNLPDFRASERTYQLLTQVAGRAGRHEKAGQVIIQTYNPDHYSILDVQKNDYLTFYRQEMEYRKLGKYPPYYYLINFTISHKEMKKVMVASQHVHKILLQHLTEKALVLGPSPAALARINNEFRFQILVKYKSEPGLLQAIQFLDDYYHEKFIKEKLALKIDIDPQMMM
Put plainly: ATPase assay, thin-layer chromatography with autoradiography. The format is biochemical. The settings on record: 0.4 mM [γ-32P]ATP, 0.12 μM SaPriA, 0.1 μM PS4/PS3-dT30 DNA, 40 mM Tris pH 8.0, 10 mM NaCl, 2 mM DTT, 2.5 mM MgCl2, 1 h; labelled compound.

Assay [2] addresses SaSsbC with a His tag (product of S. aureus ssb gene SAAV2152) (S. aureus subsp. aureus ED98). Put plainly: cross-linking; glutaraldehyde (0.1% to 5%), SaSsbC 2.5 uM, 4 C, 30 min, Coomassie-stained SDS-PAGE; self-association, tetramer.
Assay [3] shares this target. Put plainly: SEC; gel filtration, Superdex 200 prep grade, SaSsbC 2 mg/mL in Buffer B (20 mM HEPES, 100 mM NaCl, pH 7.0), column calibrated with proteins of known mass; self-association, tetramer. For orientation: Size exclusion chromatography separates by hydrodynamic size, large species first.

`Nc1ncnc2c1ncn2[C@@H]1O[C@H](COP(=O)(O)OP(=O)(O)OP(=O)(O)O)[C@@H](O)[C@H]1O` [ATP]: the “ATPase assay, thin-layer chromatography with autoradiography” value in assay [1] is on record as “SaPriA could hydrolyze ATP on its own”.

With “SaSsbC with a His tag (product of S. aureus ssb gene SAAV2152) (natural protein)”, the stoichiometry N in assay [2] and in assay [3] was 4 throughout.

Broadly, the stoichiometry N is the number of molecules, sites or subunits per partner or assembly.
